This passage reports koff, kon and Kd results from paper PMC3479090.

Assay [1] has as its target human CD1d construct with C-terminal 3C protease site and 6X-Histidine tag, loaded with α-galactosylceramide (form used for SPR), P15813;P61769. The assay is described as follows: SPR. To be noted: read off a plot; for koff: parent: est. 0.34; for kon: parent: est. 1.3e4.
Assay [2] deals with Vα24+ NKT TCR clone J24L.17 (iNKT TCR, Vα24-Jα18/Vβ11) (human). The assay is described as follows: SPR; same curves as the kinetic analysis plus 9 µM and 27 µM CD1d–αGalCer; TCR on the chip; equilibrium analysis.
Assay [3] shares this target. Description: SPR; BIAcore 3000; 300 RU of TCR captured on a Ni-NTA sensor chip, surface blocked with recombinant IgFc; CD1d–αGalCer injected (0, 0.037, 0.111, 0.333, 1, 3 µM for kinetics; series up to 27 µM) at 30 µl/min in 10 mM Hepes pH 7.4, 150 mM NaCl, 0.005% Tween-20; kinetic analysis, Langmuir 1:1 model. For orientation: In SPR one partner is held on a chip, and binding of the other changes the refractive index at the surface.

Regarding “Vα24− TCR J24.N22 (Vα3.1-Jα18/Vβ11), soluble heterodimer with zippers and His tags N29A”, in assay [1], the off-rate (koff) came out at 0.89 s⁻¹, the kon amounted to 3700 M⁻¹ s⁻¹ and the Kd turned out to be 24000 nM.
In the case of “Vα24− TCR J24.N22 (Vα3.1-Jα18/Vβ11), soluble heterodimer with zippers and His tags N51A”, in assay [1], the kon was found to be 12000 M⁻¹ s⁻¹ and the Kd was 3400 nM.
With “Vα24− TCR J24.N22 (Vα3.1-Jα18/Vβ11), soluble heterodimer with zippers and His tags S27A”, in assay [1], the koff was determined as 0.51 s⁻¹, the kon is 12000 M⁻¹ s⁻¹ and the Kd was found to be 4200 nM.
Turning to “Vα24− TCR J24.N22 (Vα3.1-Jα18/Vβ11), soluble heterodimer with zippers and His tags S50A”, in assay [1], the koff was found to be 0.38 s⁻¹, the kon turned out to be 23000 M⁻¹ s⁻¹ and the Kd was 1700 nM.
The like results for “Vα24− TCR J24.N22 (Vα3.1-Jα18/Vβ11), soluble heterodimer with zippers and His tags S97A” were, in that order, 0.52 s⁻¹, 30000 M⁻¹ s⁻¹ and 1700 nM.
Turning to “human CD1d construct with C-terminal 3C protease site and 6X-Histidine tag, loaded with α-galactosylceramide (form used for SPR) (from UniProt P15813 20-335; P61769 21-119) (complex)”, the Kd in assay [2] was 1900 nM. In assay [3], the Kd was 2100 nM, the koff came to 0.414 s⁻¹ and the kon turned out to be 194000 M⁻¹ s⁻¹.

The term koff denotes the rate constant with which the complex falls apart. The kon is the second-order rate constant of association. A word on the Kd: it is the free concentration of one partner at which half of the binding sites on the other are occupied at equilibrium, for simple one-to-one binding.
